Measurements: US20230220042A1 (SHANGHAI JIAO TONG UNIVERSITY SCHOOL OF MEDICINE, published 2023)

T1: Biotin-FcγRIIB (human, UniProt P31994 43-217, limits assumed, biotin-labelled)
T1 construct: Bought, biotin-labelled; used at 1 µg/ml for staining and sorting; also called human FcγRIIB; CD32b
T1 sequence (looked up): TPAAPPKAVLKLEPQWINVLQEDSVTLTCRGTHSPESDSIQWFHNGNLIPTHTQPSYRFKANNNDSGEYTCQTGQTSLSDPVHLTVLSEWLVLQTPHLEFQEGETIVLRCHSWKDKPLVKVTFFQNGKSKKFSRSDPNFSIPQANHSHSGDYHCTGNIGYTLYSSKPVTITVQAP


Tests used:
[1] = biological target: T1, Biotin-FcγRIIB; test: FACS sorting of displayed Fc library on biotin-FcγRIIB, NGS
[2] = biological target: T1, Biotin-FcγRIIB; test: FACS sorting of displayed Fc library on biotin-FcγRIIB, NGS; reference P271G

Row | Enrichment factor (after/before sorting) [1] | Increased factor a (enrichment factor/wild-type enrichment factor) [1] | Increased factor 2 c Site 1 (combined/point mutation) [2] | Binder
1 | 46.2 | 61.8 | 13.1 | human IgG2 anti-mouse CD40 surface displayed antibody, Fc mutant P271G/P329S (antibody, name in EU numbering, as m1; positions are Eu numbers; copies: 2 + 2) light chain (with the P2A rest): DTVLTQSPALAVSPGERVTISCRASDSVSTLMHWYQQKPGQQPKLLIYLASHLESGVPARFSGSGSGTDFTLTIDPVEADDTATYYCQQSWNDPWTFGGGTKLELKRTVAAPSVFIFPPSDEQLKSGTASVVCLLNNFYPREAKVQWKVDNALQSGNSQESVTEQDSKDSTYSLSSTLTLSKADYEKHKVYACEVTHQGLSSPVTKSFNRGECGSGATNFSLLKQAGDVEENPG heavy chain: EVQLVESDGGLVQPGRSLKLPCAASGFTFSDYYMAWVRQAPTKGLEWVASISYDGSSTYYRDSVKGRFTISRDNAKSTLYLQMDSLRSEDTATYYCGRHSSYFDYWGQGVMVTVSSASTKGPSVFPLAPCSRSTSESTAALGCLVKDYFPEPVTVSWNSGALTSGVHTFPAVLQSSGLYSLSSVVTVPSSNFGTQTYTCNVDHKPSNTKVDKTVERKCCVECPPCPAPPVAGPSVFLFPPKPKDTLMISRTPEVTCVVVDVSHEDGEVQFNWYVDGVEVHNAKTKPREEQFNSTFRVVSVLTVVHQDWLNGKEYKCKVSNKGLSAPIEKTISKTKGQPREPQVYTLPPSREEMTKNQVSLTCLVKGFYPSDIAVEWESNGQPENNYKTTPPMLDSDGSFFLYSKLTVDKSRWQQGNVFSCSVMHEALHNHYTQKSLSLSPGKLEPPPSTVSNMATVAVLVVLGAAIVTGAVVAFVMKMRRRNTGGKGGDYALAPGSQTSDLSLPDCKVMVHDPHSLA
2 | 140 | 187 | 39.6 | human IgG2 anti-mouse CD40 surface displayed antibody, Fc mutant P271G/P331C (antibody, name in EU numbering, as m1; positions are Eu numbers; copies: 2 + 2) light chain (with the P2A rest): DTVLTQSPALAVSPGERVTISCRASDSVSTLMHWYQQKPGQQPKLLIYLASHLESGVPARFSGSGSGTDFTLTIDPVEADDTATYYCQQSWNDPWTFGGGTKLELKRTVAAPSVFIFPPSDEQLKSGTASVVCLLNNFYPREAKVQWKVDNALQSGNSQESVTEQDSKDSTYSLSSTLTLSKADYEKHKVYACEVTHQGLSSPVTKSFNRGECGSGATNFSLLKQAGDVEENPG heavy chain: EVQLVESDGGLVQPGRSLKLPCAASGFTFSDYYMAWVRQAPTKGLEWVASISYDGSSTYYRDSVKGRFTISRDNAKSTLYLQMDSLRSEDTATYYCGRHSSYFDYWGQGVMVTVSSASTKGPSVFPLAPCSRSTSESTAALGCLVKDYFPEPVTVSWNSGALTSGVHTFPAVLQSSGLYSLSSVVTVPSSNFGTQTYTCNVDHKPSNTKVDKTVERKCCVECPPCPAPPVAGPSVFLFPPKPKDTLMISRTPEVTCVVVDVSHEDGEVQFNWYVDGVEVHNAKTKPREEQFNSTFRVVSVLTVVHQDWLNGKEYKCKVSNKGLPACIEKTISKTKGQPREPQVYTLPPSREEMTKNQVSLTCLVKGFYPSDIAVEWESNGQPENNYKTTPPMLDSDGSFFLYSKLTVDKSRWQQGNVFSCSVMHEALHNHYTQKSLSLSPGKLEPPPSTVSNMATVAVLVVLGAAIVTGAVVAFVMKMRRRNTGGKGGDYALAPGSQTSDLSLPDCKVMVHDPHSLA
3 | 298 | 398 | 84.2 | human IgG2 anti-mouse CD40 surface displayed antibody, Fc mutant P271G/S298E (antibody, name in EU numbering, as m1; positions are Eu numbers; copies: 2 + 2) light chain (with the P2A rest): DTVLTQSPALAVSPGERVTISCRASDSVSTLMHWYQQKPGQQPKLLIYLASHLESGVPARFSGSGSGTDFTLTIDPVEADDTATYYCQQSWNDPWTFGGGTKLELKRTVAAPSVFIFPPSDEQLKSGTASVVCLLNNFYPREAKVQWKVDNALQSGNSQESVTEQDSKDSTYSLSSTLTLSKADYEKHKVYACEVTHQGLSSPVTKSFNRGECGSGATNFSLLKQAGDVEENPG heavy chain: EVQLVESDGGLVQPGRSLKLPCAASGFTFSDYYMAWVRQAPTKGLEWVASISYDGSSTYYRDSVKGRFTISRDNAKSTLYLQMDSLRSEDTATYYCGRHSSYFDYWGQGVMVTVSSASTKGPSVFPLAPCSRSTSESTAALGCLVKDYFPEPVTVSWNSGALTSGVHTFPAVLQSSGLYSLSSVVTVPSSNFGTQTYTCNVDHKPSNTKVDKTVERKCCVECPPCPAPPVAGPSVFLFPPKPKDTLMISRTPEVTCVVVDVSHEDGEVQFNWYVDGVEVHNAKTKPREEQFNETFRVVSVLTVVHQDWLNGKEYKCKVSNKGLPAPIEKTISKTKGQPREPQVYTLPPSREEMTKNQVSLTCLVKGFYPSDIAVEWESNGQPENNYKTTPPMLDSDGSFFLYSKLTVDKSRWQQGNVFSCSVMHEALHNHYTQKSLSLSPGKLEPPPSTVSNMATVAVLVVLGAAIVTGAVVAFVMKMRRRNTGGKGGDYALAPGSQTSDLSLPDCKVMVHDPHSLA
4 | 32.3 | 43.2 | 9.1 | human IgG2 anti-mouse CD40 surface displayed antibody, Fc mutant P271G/P331T (antibody, name in EU numbering, as m1; positions are Eu numbers; copies: 2 + 2) light chain (with the P2A rest): DTVLTQSPALAVSPGERVTISCRASDSVSTLMHWYQQKPGQQPKLLIYLASHLESGVPARFSGSGSGTDFTLTIDPVEADDTATYYCQQSWNDPWTFGGGTKLELKRTVAAPSVFIFPPSDEQLKSGTASVVCLLNNFYPREAKVQWKVDNALQSGNSQESVTEQDSKDSTYSLSSTLTLSKADYEKHKVYACEVTHQGLSSPVTKSFNRGECGSGATNFSLLKQAGDVEENPG heavy chain: EVQLVESDGGLVQPGRSLKLPCAASGFTFSDYYMAWVRQAPTKGLEWVASISYDGSSTYYRDSVKGRFTISRDNAKSTLYLQMDSLRSEDTATYYCGRHSSYFDYWGQGVMVTVSSASTKGPSVFPLAPCSRSTSESTAALGCLVKDYFPEPVTVSWNSGALTSGVHTFPAVLQSSGLYSLSSVVTVPSSNFGTQTYTCNVDHKPSNTKVDKTVERKCCVECPPCPAPPVAGPSVFLFPPKPKDTLMISRTPEVTCVVVDVSHEDGEVQFNWYVDGVEVHNAKTKPREEQFNSTFRVVSVLTVVHQDWLNGKEYKCKVSNKGLPATIEKTISKTKGQPREPQVYTLPPSREEMTKNQVSLTCLVKGFYPSDIAVEWESNGQPENNYKTTPPMLDSDGSFFLYSKLTVDKSRWQQGNVFSCSVMHEALHNHYTQKSLSLSPGKLEPPPSTVSNMATVAVLVVLGAAIVTGAVVAFVMKMRRRNTGGKGGDYALAPGSQTSDLSLPDCKVMVHDPHSLA
5 | 6.78 | 9.06 | 1.9 | human IgG2 anti-mouse CD40 surface displayed antibody, Fc mutant P271G/S298D (antibody, name in EU numbering, as m1; positions are Eu numbers; copies: 2 + 2) light chain (with the P2A rest): DTVLTQSPALAVSPGERVTISCRASDSVSTLMHWYQQKPGQQPKLLIYLASHLESGVPARFSGSGSGTDFTLTIDPVEADDTATYYCQQSWNDPWTFGGGTKLELKRTVAAPSVFIFPPSDEQLKSGTASVVCLLNNFYPREAKVQWKVDNALQSGNSQESVTEQDSKDSTYSLSSTLTLSKADYEKHKVYACEVTHQGLSSPVTKSFNRGECGSGATNFSLLKQAGDVEENPG heavy chain: EVQLVESDGGLVQPGRSLKLPCAASGFTFSDYYMAWVRQAPTKGLEWVASISYDGSSTYYRDSVKGRFTISRDNAKSTLYLQMDSLRSEDTATYYCGRHSSYFDYWGQGVMVTVSSASTKGPSVFPLAPCSRSTSESTAALGCLVKDYFPEPVTVSWNSGALTSGVHTFPAVLQSSGLYSLSSVVTVPSSNFGTQTYTCNVDHKPSNTKVDKTVERKCCVECPPCPAPPVAGPSVFLFPPKPKDTLMISRTPEVTCVVVDVSHEDGEVQFNWYVDGVEVHNAKTKPREEQFNDTFRVVSVLTVVHQDWLNGKEYKCKVSNKGLPAPIEKTISKTKGQPREPQVYTLPPSREEMTKNQVSLTCLVKGFYPSDIAVEWESNGQPENNYKTTPPMLDSDGSFFLYSKLTVDKSRWQQGNVFSCSVMHEALHNHYTQKSLSLSPGKLEPPPSTVSNMATVAVLVVLGAAIVTGAVVAFVMKMRRRNTGGKGGDYALAPGSQTSDLSLPDCKVMVHDPHSLA
6 | 10.2 | 13.6 | 2.9 | human IgG2 anti-mouse CD40 surface displayed antibody, Fc mutant P271G/S298K (antibody, name in EU numbering, as m1; positions are Eu numbers; copies: 2 + 2) light chain (with the P2A rest): DTVLTQSPALAVSPGERVTISCRASDSVSTLMHWYQQKPGQQPKLLIYLASHLESGVPARFSGSGSGTDFTLTIDPVEADDTATYYCQQSWNDPWTFGGGTKLELKRTVAAPSVFIFPPSDEQLKSGTASVVCLLNNFYPREAKVQWKVDNALQSGNSQESVTEQDSKDSTYSLSSTLTLSKADYEKHKVYACEVTHQGLSSPVTKSFNRGECGSGATNFSLLKQAGDVEENPG heavy chain: EVQLVESDGGLVQPGRSLKLPCAASGFTFSDYYMAWVRQAPTKGLEWVASISYDGSSTYYRDSVKGRFTISRDNAKSTLYLQMDSLRSEDTATYYCGRHSSYFDYWGQGVMVTVSSASTKGPSVFPLAPCSRSTSESTAALGCLVKDYFPEPVTVSWNSGALTSGVHTFPAVLQSSGLYSLSSVVTVPSSNFGTQTYTCNVDHKPSNTKVDKTVERKCCVECPPCPAPPVAGPSVFLFPPKPKDTLMISRTPEVTCVVVDVSHEDGEVQFNWYVDGVEVHNAKTKPREEQFNKTFRVVSVLTVVHQDWLNGKEYKCKVSNKGLPAPIEKTISKTKGQPREPQVYTLPPSREEMTKNQVSLTCLVKGFYPSDIAVEWESNGQPENNYKTTPPMLDSDGSFFLYSKLTVDKSRWQQGNVFSCSVMHEALHNHYTQKSLSLSPGKLEPPPSTVSNMATVAVLVVLGAAIVTGAVVAFVMKMRRRNTGGKGGDYALAPGSQTSDLSLPDCKVMVHDPHSLA
7 | 9.73 | 13 | 2.8 | human IgG2 anti-mouse CD40 surface displayed antibody, Fc mutant P271G/S298G (antibody, name in EU numbering, as m1; positions are Eu numbers; copies: 2 + 2) light chain (with the P2A rest): DTVLTQSPALAVSPGERVTISCRASDSVSTLMHWYQQKPGQQPKLLIYLASHLESGVPARFSGSGSGTDFTLTIDPVEADDTATYYCQQSWNDPWTFGGGTKLELKRTVAAPSVFIFPPSDEQLKSGTASVVCLLNNFYPREAKVQWKVDNALQSGNSQESVTEQDSKDSTYSLSSTLTLSKADYEKHKVYACEVTHQGLSSPVTKSFNRGECGSGATNFSLLKQAGDVEENPG heavy chain: EVQLVESDGGLVQPGRSLKLPCAASGFTFSDYYMAWVRQAPTKGLEWVASISYDGSSTYYRDSVKGRFTISRDNAKSTLYLQMDSLRSEDTATYYCGRHSSYFDYWGQGVMVTVSSASTKGPSVFPLAPCSRSTSESTAALGCLVKDYFPEPVTVSWNSGALTSGVHTFPAVLQSSGLYSLSSVVTVPSSNFGTQTYTCNVDHKPSNTKVDKTVERKCCVECPPCPAPPVAGPSVFLFPPKPKDTLMISRTPEVTCVVVDVSHEDGEVQFNWYVDGVEVHNAKTKPREEQFNGTFRVVSVLTVVHQDWLNGKEYKCKVSNKGLPAPIEKTISKTKGQPREPQVYTLPPSREEMTKNQVSLTCLVKGFYPSDIAVEWESNGQPENNYKTTPPMLDSDGSFFLYSKLTVDKSRWQQGNVFSCSVMHEALHNHYTQKSLSLSPGKLEPPPSTVSNMATVAVLVVLGAAIVTGAVVAFVMKMRRRNTGGKGGDYALAPGSQTSDLSLPDCKVMVHDPHSLA
